{"source": "patent US20090118184A1", "about": "(UNIVERSITY OF ROCHESTER, published 2009)", "binders": {"B1": {"name": "factor VIIIa A2 subunit, wild type (other)", "chain": "SVAKKHPKTWVHYIAAEEEDWDYAPLVLAPDDRSYKSQYLNNGPQRIGRKYKKVRFMAYTDETFKTREAIQHESGILGPLLYGEVGDTLLIIFKNQASRPYNIYPHGITDVRPLYSRRLPKGVKHLKDFPILPGEIFKYKWTVTVEDGPTKSDPRCLTRYYSSFVNMERDLASGLIGPLLICYKESVDQRGNQIMSDKRNVILFSVFDENRSWYLTENIQRFLPNPAGVQLEDPEFQASNIMHSINGYVFDSLQLSVCLHEVAYWYILSIGAQTDFLSVFFSGYTFKHKMVYEDTLTLFPFSGETVFMSMENPGLWILGCHNSDFRNRGMTALLKVSSCDKNTGDYYEDSYEDISAYLLSKNNAIEPR"}}, "test_in_all_cases": "cell-based or functional assay", "key": {"[1]": {"molecular_target": "T1, factor VIIIa A1/A3C1C2 dimer, E1829A (human, UniProt P00451 20-391; P00451 1709-2351)", "T1 sequence 1": "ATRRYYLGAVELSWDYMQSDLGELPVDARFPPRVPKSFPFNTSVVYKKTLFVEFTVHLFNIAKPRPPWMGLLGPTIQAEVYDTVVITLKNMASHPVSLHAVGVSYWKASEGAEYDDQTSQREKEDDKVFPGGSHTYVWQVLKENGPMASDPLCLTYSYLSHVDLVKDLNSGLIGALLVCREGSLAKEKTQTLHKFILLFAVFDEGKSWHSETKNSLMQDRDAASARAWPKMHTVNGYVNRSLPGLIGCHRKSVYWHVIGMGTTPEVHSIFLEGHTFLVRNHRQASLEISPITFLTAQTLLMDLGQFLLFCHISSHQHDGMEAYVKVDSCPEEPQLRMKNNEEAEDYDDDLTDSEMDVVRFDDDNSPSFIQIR", "T1 sequence 2": "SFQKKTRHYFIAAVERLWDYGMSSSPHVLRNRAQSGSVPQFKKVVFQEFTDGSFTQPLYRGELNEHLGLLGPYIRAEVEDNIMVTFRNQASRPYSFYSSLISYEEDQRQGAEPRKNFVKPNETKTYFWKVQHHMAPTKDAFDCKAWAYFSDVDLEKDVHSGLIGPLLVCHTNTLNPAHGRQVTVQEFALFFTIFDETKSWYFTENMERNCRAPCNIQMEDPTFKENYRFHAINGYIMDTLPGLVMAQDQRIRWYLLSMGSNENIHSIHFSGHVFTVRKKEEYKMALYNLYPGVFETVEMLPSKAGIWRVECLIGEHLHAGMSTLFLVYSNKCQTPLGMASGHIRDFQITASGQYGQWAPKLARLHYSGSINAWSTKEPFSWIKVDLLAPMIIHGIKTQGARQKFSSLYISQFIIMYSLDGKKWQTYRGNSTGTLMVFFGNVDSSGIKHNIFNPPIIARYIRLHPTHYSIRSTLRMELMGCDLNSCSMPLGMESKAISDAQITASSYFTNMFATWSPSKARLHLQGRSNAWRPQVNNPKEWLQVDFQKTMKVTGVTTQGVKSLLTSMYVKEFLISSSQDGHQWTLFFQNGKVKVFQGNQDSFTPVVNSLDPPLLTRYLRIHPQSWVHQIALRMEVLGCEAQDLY"}, "[2]": {"molecular_target": "T2, factor VIIIa A1/A3C1C2 dimer, Glu1984Val (human, UniProt P00451 20-391; P00451 1709-2351)", "T2 sequence 1": "T1 sequence 1", "T2 sequence 2": "T1 sequence 2 with A140E, E295V"}, "[3]": {"molecular_target": "T3, factor VIIIa A1/A3C1C2 dimer, Glu272Ala (human, UniProt P00451 20-391; P00451 1709-2351)", "T3 chain 1": "T1 sequence 1 with E272A", "T3 chain 2": "T1 sequence 2 with A140E"}}, "note": "Changes are numbered by the printed parent chain.", "data": [{"binder": "B1", "values": [{"measurement": "rate of factor VIIIa decay compared with WT, factor IXa present", "setting": "[1]", "result": 5, "unit": "fold"}, {"measurement": "Factor VIIIa Decay relative to the WT value, Factor IXa absent", "setting": "[2]", "result": "0.26 relative to WT"}, {"measurement": "Factor VIIIa Decay relative to the WT value, Factor IXa present", "setting": "[2]", "result": "0.13 relative to WT"}, {"measurement": "Factor VIIIa Decay, Factor IXa absent", "setting": "[2]", "result": 0.0217, "unit": "min⁻¹"}, {"measurement": "Factor VIIIa Decay, Factor IXa present", "setting": "[2]", "result": 0.0019, "unit": "min⁻¹"}, {"measurement": "Factor VIIIa Decay relative to the WT value, Factor IXa absent", "setting": "[3]", "result": "1.95 relative to WT"}, {"measurement": "Factor VIIIa Decay relative to the WT value, Factor IXa present", "setting": "[3]", "result": "1.06 relative to WT"}, {"measurement": "Factor VIIIa Decay, Factor IXa absent", "setting": "[3]", "result": 0.164, "unit": "min⁻¹"}, {"measurement": "Factor VIIIa Decay, Factor IXa present", "setting": "[3]", "result": 0.0163, "unit": "min⁻¹"}]}]}
